As usually defined, the Kd is the constant that tells how readily two partners part at equilibrium.

The assay has as its target T1, recombinant human C3d (human, UniProt P01024 996-1303, limits assumed).
T1 construct: domain: C3d; Also used for statements that speak only of C3d or human C3d; also called wild-type C3d
The assay can be described thus: radiolabelled antibody; method and antigen not stated.

T1 sequence (P01024 996-1303 limits assumed): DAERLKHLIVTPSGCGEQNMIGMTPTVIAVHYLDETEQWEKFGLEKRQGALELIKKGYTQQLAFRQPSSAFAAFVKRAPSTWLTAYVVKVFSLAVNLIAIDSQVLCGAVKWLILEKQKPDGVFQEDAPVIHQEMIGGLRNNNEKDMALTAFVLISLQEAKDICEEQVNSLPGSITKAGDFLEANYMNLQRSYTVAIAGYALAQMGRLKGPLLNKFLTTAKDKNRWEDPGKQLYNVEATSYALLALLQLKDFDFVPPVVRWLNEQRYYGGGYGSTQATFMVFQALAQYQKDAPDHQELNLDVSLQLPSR

B1: mouse monoclonal antibody 3d29 (antibody, mouse IgG2a, V domains shown)
VH: EVQLQQSGPVLVKPGASVKMSCKASGYTFTDYYMNWVKQSHGKSLEWIGVINPYNGGTSYNQKFKGKATLTVDKSSRTAYMELNSLTSEDSAVYYCSRGGPYWGQGTTLTVSS
VL: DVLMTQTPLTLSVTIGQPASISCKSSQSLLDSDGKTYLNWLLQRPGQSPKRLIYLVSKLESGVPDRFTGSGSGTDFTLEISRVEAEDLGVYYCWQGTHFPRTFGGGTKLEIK
notes: Group I clone; Also used FITC-labelled, biotinylated, radiolabelled and conjugated to SPIO nanoparticles; told under assay; also called clone 29; C3d29
For the molecule B1, the Kd turned out to be 430 pM.

The values are drawn from patent publication US20200308295A1 (published 2020).
